# Literature values as cited in paper PMC4449261.
# Columns and labels:
# IL-4Rα1 (Homo sapiens) = IL-4Rα1 (Homo sapiens) (UniProt P24394)
# IL-13Rα1 (Homo sapiens) = IL-13Rα1 (Homo sapiens) (UniProt P78552)
# Chain of UniProt P78552 (P78552 22-343): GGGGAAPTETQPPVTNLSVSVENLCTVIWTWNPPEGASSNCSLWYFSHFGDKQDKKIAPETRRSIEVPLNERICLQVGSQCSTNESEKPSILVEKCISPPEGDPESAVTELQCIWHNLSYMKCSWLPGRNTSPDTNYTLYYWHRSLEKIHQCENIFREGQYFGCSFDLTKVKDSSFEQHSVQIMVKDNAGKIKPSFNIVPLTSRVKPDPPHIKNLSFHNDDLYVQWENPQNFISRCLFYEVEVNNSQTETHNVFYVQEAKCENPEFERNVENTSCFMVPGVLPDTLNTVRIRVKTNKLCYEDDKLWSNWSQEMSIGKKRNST
# Chain of UniProt P24394 (P24394 26-232): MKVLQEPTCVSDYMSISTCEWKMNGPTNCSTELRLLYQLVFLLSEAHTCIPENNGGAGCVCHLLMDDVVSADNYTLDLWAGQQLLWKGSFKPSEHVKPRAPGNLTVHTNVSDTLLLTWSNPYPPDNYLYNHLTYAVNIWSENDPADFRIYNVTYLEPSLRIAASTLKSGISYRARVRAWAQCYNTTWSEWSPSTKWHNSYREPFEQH
Kd (IL-4Rα1 (Homo sapiens)) [nM],Kd (IL-13Rα1 (Homo sapiens)) [nM],Substance
0.1,–,IL-4 (from UniProt P05112)
–,4,IL-13 (from UniProt P35225)
